Tested on: Escherichia coli TOP10
Assay: shrunken log2 fold change of peptide-encoding DNA abundance (4.5 h post-induction vs induction); higher = less antimicrobial activity (less host growth inhibition)
Conditions: time post-induction: 4.5 h; library: site-saturation at positions 5, 18, 19, 20
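Note: peptides expressed intracellularly from a pBAD plasmid library in pooled LB shake-flask culture, induced with 0.3% L-arabinose, DNA abundance read by NGS, three biological replicates, DESeq2 with apeglm shrinkage.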

RRIRVRPPRLPRPRPRPIVIPRP and RRIRVRPPRLPRPRPRPKALPRP are within 0.2 log units of each other in “shrunken log2 fold change” value: 0.0265 for the first, 0.0497 for the second.

Compared with RRIRVRPPRLPRPRPRPKCFPRP, RRIRVRPPRLPRPRPRPKETPRP is higher in “shrunken log2 fold change” value: -0.213 for the first, 0.0161 for the second.

First: RRIRVRPPRLPRPRPRPKGLPRP
Second: RRIRVRPPRLPRPRPRPKGNPRP
The “shrunken log2 fold change” value of the first is lower: -0.239 for the first, 0.143 for the second.

Going from RRIRVRPPRLPRPRPRPKHAPRP to RRIRVRPPRLPRPRPRPKHVPRP, the “shrunken log2 fold change” value falls from 0.133 to -0.101.

First: RRIRVRPPRLPRPRPRPKLAPRP
Second: RRIRVRPPRLPRPRPRPKLKPRP
The “shrunken log2 fold change” value of the first is higher: 0.274 for the first, 0.00388 for the second.

Going from RRIRVRPPRLPRPRPRPKNIPRP to RRIRVRPPRLPRPRPRPKNKPRP, the “shrunken log2 fold change” value rises from -0.505 to -0.169.

RRIRVRPPRLPRPRPRPKPDPRP and RRIRVRPPRLPRPRPRPKPYPRP are within 0.2 log units of each other in “shrunken log2 fold change” value: 0.206 for the first, 0.0131 for the second.

RRIRVRPPRLPRPRPRPKQLPRP and RRIRVRPPRLPRPRPRPKRTPRP are within 0.2 log units of each other in “shrunken log2 fold change” value: 0.0267 for the first, 0.0795 for the second.

Compared with RRIRVRPPRLPRPRPRPKWNPRP, RRIRVRPPRLPRPRPRPKYIPRP is lower in “shrunken log2 fold change” value: -0.172 for the first, -0.821 for the second.

First: RRIRVRPPRLPRPRPRPKYQPRP
Second: RRIRVRPPRLPRPRPRPLAAPRP
The “shrunken log2 fold change” value of the first is lower: -0.876 for the first, 0.152 for the second.

Compared with RRIRVRPPRLPRPRPRPLDAPRP, RRIRVRPPRLPRPRPRPLEAPRP is lower in “shrunken log2 fold change” value: 0.571 for the first, 0.242 for the second.

RRIRVRPPRLPRPRPRPLEPPRP and RRIRVRPPRLPRPRPRPLFIPRP are within 0.2 log units of each other in “shrunken log2 fold change” value: 0.236 for the first, 0.101 for the second.

First: RRIRVRPPRLPRPRPRPLHKPRP
Second: RRIRVRPPRLPRPRPRPLIEPRP
The “shrunken log2 fold change” value of the first is lower: -0.192 for the first, 0.103 for the second.

RRIRVRPPRLPRPRPRPLIRPRP and RRIRVRPPRLPRPRPRPLKGPRP are within 0.2 log units of each other in “shrunken log2 fold change” value: -0.352 for the first, -0.211 for the second.

Compared with RRIRVRPPRLPRPRPRPLLPPRP, RRIRVRPPRLPRPRPRPLLSPRP is lower in “shrunken log2 fold change” value: 0.328 for the first, -0.08 for the second.

Compared with RRIRVRPPRLPRPRPRPLMNPRP, RRIRVRPPRLPRPRPRPLMQPRP is higher in “shrunken log2 fold change” value: -0.649 for the first, -0.0132 for the second.

RRIRVRPPRLPRPRPRPLPKPRP and RRIRVRPPRLPRPRPRPLQAPRP are within 0.2 log units of each other in “shrunken log2 fold change” value: 0.361 for the first, 0.432 for the second.

RRIRVRPPRLPRPRPRPLQDPRP and RRIRVRPPRLPRPRPRPLRCPRP are within 0.2 log units of each other in “shrunken log2 fold change” value: -0.104 for the first, 0.0372 for the second.

First: RRIRVRPPRLPRPRPRPLSGPRP
Second: RRIRVRPPRLPRPRPRPLSKPRP
The “shrunken log2 fold change” value of the first is higher: 0.179 for the first, -0.303 for the second.

First: RRIRVRPPRLPRPRPRPLTDPRP
Second: RRIRVRPPRLPRPRPRPLTEPRP
The “shrunken log2 fold change” value of the first is higher: 0.0682 for the first, -0.503 for the second.

RRIRVRPPRLPRPRPRPLVIPRP and RRIRVRPPRLPRPRPRPLVNPRP are within 0.2 log units of each other in “shrunken log2 fold change” value: -0.429 for the first, -0.244 for the second.

First: RRIRVRPPRLPRPRPRPLWRPRP
Second: RRIRVRPPRLPRPRPRPLYNPRP
The “shrunken log2 fold change” value of the first is higher: 0.293 for the first, -0.56 for the second.

RRIRVRPPRLPRPRPRPMCCPRP and RRIRVRPPRLPRPRPRPMCGPRP are within 0.2 log units of each other in “shrunken log2 fold change” value: -0.0676 for the first, 0.0281 for the second.

First: RRIRVRPPRLPRPRPRPMDCPRP
Second: RRIRVRPPRLPRPRPRPMFNPRP
The “shrunken log2 fold change” value of the first is higher: -0.0385 for the first, -0.4 for the second.

RRIRVRPPRLPRPRPRPMFSPRP and RRIRVRPPRLPRPRPRPMHKPRP are within 0.2 log units of each other in “shrunken log2 fold change” value: -0.284 for the first, -0.192 for the second.

RRIRVRPPRLPRPRPRPMKCPRP and RRIRVRPPRLPRPRPRPMKPPRP are within 0.2 log units of each other in “shrunken log2 fold change” value: -0.00104 for the first, -0.0376 for the second.

RRIRVRPPRLPRPRPRPMKWPRP and RRIRVRPPRLPRPRPRPMLRPRP are within 0.2 log units of each other in “shrunken log2 fold change” value: -0.068 for the first, -0.102 for the second.

First: RRIRVRPPRLPRPRPRPMMAPRP
Second: RRIRVRPPRLPRPRPRPMMKPRP
The “shrunken log2 fold change” value of the first is lower: -0.12 for the first, 0.168 for the second.

RRIRVRPPRLPRPRPRPMMTPRP and RRIRVRPPRLPRPRPRPMNYPRP are within 0.2 log units of each other in “shrunken log2 fold change” value: 0.0496 for the first, -0.128 for the second.

RRIRVRPPRLPRPRPRPMQCPRP and RRIRVRPPRLPRPRPRPMQDPRP are within 0.2 log units of each other in “shrunken log2 fold change” value: 0.0658 for the first, 0.0217 for the second.

First: RRIRVRPPRLPRPRPRPMRYPRP
Second: RRIRVRPPRLPRPRPRPMSCPRP
The “shrunken log2 fold change” value of the first is higher: 0.453 for the first, 0.0534 for the second.

RRIRVRPPRLPRPRPRPMTAPRP and RRIRVRPPRLPRPRPRPMTTPRP are within 0.2 log units of each other in “shrunken log2 fold change” value: -0.12 for the first, 0.0377 for the second.

RRIRVRPPRLPRPRPRPMVGPRP and RRIRVRPPRLPRPRPRPMVIPRP are within 0.2 log units of each other in “shrunken log2 fold change” value: 0.0148 for the first, 0.0224 for the second.

RRIRVRPPRLPRPRPRPMWFPRP and RRIRVRPPRLPRPRPRPNCGPRP are within 0.2 log units of each other in “shrunken log2 fold change” value: -0.0469 for the first, 0.0742 for the second.

RRIRVRPPRLPRPRPRPNDSPRP and RRIRVRPPRLPRPRPRPNEYPRP are within 0.2 log units of each other in “shrunken log2 fold change” value: -0.326 for the first, -0.487 for the second.

RRIRVRPPRLPRPRPRPNFKPRP and RRIRVRPPRLPRPRPRPNGAPRP are within 0.2 log units of each other in “shrunken log2 fold change” value: -0.0173 for the first, -0.0189 for the second.

RRIRVRPPRLPRPRPRPNGPPRP and RRIRVRPPRLPRPRPRPNGWPRP are within 0.2 log units of each other in “shrunken log2 fold change” value: 0.144 for the first, 0.0568 for the second.

First: RRIRVRPPRLPRPRPRPNIEPRP
Second: RRIRVRPPRLPRPRPRPNKQPRP
The “shrunken log2 fold change” value of the first is lower: -0.616 for the first, 0.0173 for the second.

RRIRVRPPRLPRPRPRPNKVPRP and RRIRVRPPRLPRPRPRPNLSPRP are within 0.2 log units of each other in “shrunken log2 fold change” value: -0.271 for the first, -0.444 for the second.

Compared with RRIRVRPPRLPRPRPRPNLTPRP, RRIRVRPPRLPRPRPRPNMIPRP is lower in “shrunken log2 fold change” value: -0.186 for the first, -0.491 for the second.

First: RRIRVRPPRLPRPRPRPNMTPRP
Second: RRIRVRPPRLPRPRPRPNNIPRP
The “shrunken log2 fold change” value of the first is higher: -0.256 for the first, -0.937 for the second.

First: RRIRVRPPRLPRPRPRPNPEPRP
Second: RRIRVRPPRLPRPRPRPNPIPRP
The “shrunken log2 fold change” value of the first is lower: -0.286 for the first, 0.129 for the second.

RRIRVRPPRLPRPRPRPNPSPRP and RRIRVRPPRLPRPRPRPNQIPRP are within 0.2 log units of each other in “shrunken log2 fold change” value: 0.0073 for the first, -0.1 for the second.

Compared with RRIRVRPPRLPRPRPRPNRFPRP, RRIRVRPPRLPRPRPRPNTDPRP is lower in “shrunken log2 fold change” value: 0.11 for the first, -0.626 for the second.

First: RRIRVRPPRLPRPRPRPNVQPRP
Second: RRIRVRPPRLPRPRPRPNWYPRP
The “shrunken log2 fold change” value of the first is higher: -0.0734 for the first, -0.523 for the second.

First: RRIRVRPPRLPRPRPRPNYLPRP
Second: RRIRVRPPRLPRPRPRPNYTPRP
The “shrunken log2 fold change” value of the first is higher: -0.102 for the first, -0.533 for the second.

Compared with RRIRVRPPRLPRPRPRPPCSPRP, RRIRVRPPRLPRPRPRPPDWPRP is higher in “shrunken log2 fold change” value: -0.116 for the first, 0.46 for the second.

First: RRIRVRPPRLPRPRPRPPIYPRP
Second: RRIRVRPPRLPRPRPRPPLKPRP
The “shrunken log2 fold change” value of the first is lower: -0.16 for the first, 0.343 for the second.

First: RRIRVRPPRLPRPRPRPPLLPRP
Second: RRIRVRPPRLPRPRPRPPMDPRP
The “shrunken log2 fold change” value of the first is higher: 0.287 for the first, -0.291 for the second.

Going from RRIRVRPPRLPRPRPRPPMEPRP to RRIRVRPPRLPRPRPRPPNCPRP, the “shrunken log2 fold change” value rises from -0.172 to 0.194.

Going from RRIRVRPPRLPRPRPRPPNQPRP to RRIRVRPPRLPRPRPRPPPNPRP, the “shrunken log2 fold change” value rises from 0.184 to 0.73.

RRIRVRPPRLPRPRPRPPRDPRP and RRIRVRPPRLPRPRPRPPTAPRP are within 0.2 log units of each other in “shrunken log2 fold change” value: 0.303 for the first, 0.43 for the second.

RRIRVRPPRLPRPRPRPPTGPRP and RRIRVRPPRLPRPRPRPPTLPRP are within 0.2 log units of each other in “shrunken log2 fold change” value: 0.245 for the first, 0.252 for the second.

RRIRVRPPRLPRPRPRPPVFPRP and RRIRVRPPRLPRPRPRPPWKPRP are within 0.2 log units of each other in “shrunken log2 fold change” value: 0.00719 for the first, -0.0783 for the second.

In the case of RRIRVRPPRLPRPRPRPPYYPRP, the “shrunken log2 fold change” value was -0.363.

From the supplement of paper PMC9112550, “Optimization of the antimicrobial peptide Bac7 by deep mutational scanning” (BMC Biology, 2022)
